Assay results from article PMC7048800.

Columns and labels:
[1] = molecular target: HsNMT1ΔC2 (HsNMT1 deletion variant with truncation of the last two amino acids) (human) (UniProt P30419)
[2] = molecular target: HsNMT1ΔC3 (HsNMT1 variant with truncation of the last three amino acids) (human) (UniProt P30419)
[3] = molecular target: T1, Long-HsNMT1 (human N-myristoyltransferase 1, residues 99-496) (human) (UniProt P30419)
T1 sequence: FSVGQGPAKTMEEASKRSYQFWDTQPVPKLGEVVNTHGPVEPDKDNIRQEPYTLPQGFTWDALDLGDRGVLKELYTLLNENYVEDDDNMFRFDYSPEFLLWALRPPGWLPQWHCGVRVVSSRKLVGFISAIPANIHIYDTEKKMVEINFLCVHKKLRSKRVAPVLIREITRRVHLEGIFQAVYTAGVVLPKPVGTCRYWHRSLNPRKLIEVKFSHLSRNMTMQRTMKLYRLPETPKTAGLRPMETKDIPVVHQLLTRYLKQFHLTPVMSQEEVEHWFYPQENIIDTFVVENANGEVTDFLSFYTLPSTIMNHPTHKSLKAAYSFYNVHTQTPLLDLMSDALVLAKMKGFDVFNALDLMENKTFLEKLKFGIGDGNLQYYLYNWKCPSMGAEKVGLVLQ

Binder: GCSVSKKK [GlyCysSerValSerLysLysLys (SOS3) peptide]
- Km for the peptide in the fluorescence-based coupled in vitro MYR assay with MyrCoA, 30 °C [1]: 629 µM
- Km for the peptide in the fluorescence-based coupled in vitro MYR assay with MyrCoA, 30 °C [2]: 2140 µM
- Km for the peptide in the fluorescence-based coupled in vitro MYR assay with MyrCoA, 30 °C [3]: 18 µM
